Data as given in patent US10702592B2, “Peptides and combination of peptides for use in immunotherapy against NHL and other cancers” (Immatics Biotechnologies GmbH, priority 2016, dated 2020).

Molecular target: HLA-A*02:01 (Homo sapiens, UniProt P04439, D140Y/D185E/D98H/E176V/E277Q/G131W/G231S/I119V/I121R/I166T/I218V/L300P/L318F/N151K/N90K/P208A/P217A/Q86G/Q94H/R138H/R169H/T345S)
Assay: MHC binding assay (UV-ligand exchange, beta2m ELISA)
Conditions: binding to HLA-A*02:01, UV-ligand exchange
Source text: Candidate peptides for T cell based therapies according to the present invention were further tested for their MHC binding capacity (affinity). The individual peptide-MHC complexes were produced by UV-ligand exchange, where a UV-sensitive peptide is cleaved upon UV-irradiation, and exchanged with the peptide of interest as analyzed. Only peptide candidates that can effectively bind and stabilize the peptide-receptive MHC molecules prevent dissociation of the MHC complexes. To determine the yield of the exchange reaction, an ELISA was performed based on the detection of the light chain (β2m) of stabilized MHC complexes. The assay was performed as generally described in Rodenko et al. (Rodenko et al., 2006).
96 well MAXISorp plates (NUNC) were coated over night with 2 ug/ml streptavidin in PBS at room temperature, washed 4× and blocked for 1 h at 37° C. in 2% BSA containing blocking buffer. Refolded HLA-A*02:01/MLA-001 monomers served as standards, covering the range of 15-500 ng/ml. Peptide-MHC monomers of the UV-exchange reaction were diluted 100 fold in blocking buffer. Samples were incubated for 1 h at 37° C., washed four times, incubated with 2 ug/ml HRP conjugated anti-β2m for 1 h at 37° C., washed again and detected with TMB solution that is stopped with […]. Absorption was measured at 450 nm. Candidate peptides that show a high exchange yield (preferably higher than 50%, most preferred higher than 75%) are generally preferred for a generation and production of antibodies or fragments thereof, and/or T cell receptors or fragments thereof, as they show sufficient avidity to the MHC molecules and prevent dissociation of the MHC complexes.

Substance | Peptide exchange (MHC class I binding score, peptide exchange yield)
115 (LLIDIIHFL; listed as Homo sapiens) [compound 115] | “++++” (≥75% = ++++)
207 (GLVGLLEQA; listed as Homo sapiens) [compound 207] | “++++” (≥75% = ++++)
285 (SITAVTPLL; listed as Homo sapiens) [compound 285] | “+++” (≥50 = +++)
82 (FLIDGSSSV; listed as Homo sapiens) [compound 82] | “+++” (≥50 = +++)
250 (VLTNVGAAL; listed as Homo sapiens) [compound 250] | “+++” (≥50 = +++)
199 (SLNSTTWKV; listed as Homo sapiens) [compound 199] | “+++” (≥50 = +++)
106 (VLYELLQYI; listed as Homo sapiens) [compound 106] | “++++” (≥75% = ++++)
121 (YLTGYNFTL; listed as Homo sapiens) [compound 121] | “+++” (≥50 = +++)
203 (ILDTIFHKV; listed as Homo sapiens) [compound 203] | “+++” (≥50 = +++)
34 (LLWEDGVTEA; listed as Homo sapiens) [compound 34] | “+++” (≥50 = +++)
284 (KLQEQIHRV; listed as Homo sapiens) [compound 284] | “+++” (≥50 = +++)
231 (IVMGAIPSV; listed as Homo sapiens) [compound 231] | “+++” (≥50 = +++)
238 (YQYGAVVTL; listed as Homo sapiens) [compound 238] | “+++” (≥50 = +++)
11 (GLDTVVALL; listed as Homo sapiens) [compound 11] | “+++” (≥50 = +++)
117 (VLATILAQL; listed as Homo sapiens) [compound 117] | “++++” (≥75% = ++++)
120 (VLLGTTWAL; listed as Homo sapiens) [compound 120] | “+++” (≥50 = +++)
190 (GLIELVDQL; listed as Homo sapiens) [compound 190] | “+++” (≥50 = +++)

More lines, now with the values ahead:

Peptide exchange (MHC class I binding score, peptide exchange yield) | Substance
“++” (≥20% = ++) | 314 (LIDDKGTIKL; listed as Homo sapiens) [compound 314]
“++++” (≥75% = ++++) | 289 (SLLAANNLL; listed as Homo sapiens) [compound 289]
“++” (≥20% = ++) | 215 (QLFEEEIEL; listed as Homo sapiens) [compound 215]
“+++” (≥50 = +++) | 310 (VMAEAPPGV; listed as Homo sapiens) [compound 310]
“+++” (≥50 = +++) | 291 (KIIDTAGLSEA; listed as Homo sapiens) [compound 291]
“+++” (≥50 = +++) | 149 (ILNPVTTKL; listed as Homo sapiens) [compound 149]
“++” (≥20% = ++) | 132 (VLQDQVDEL; listed as Homo sapiens) [compound 132]
“++++” (≥75% = ++++) | 163 (SIFDAVLKGV; listed as Homo sapiens) [compound 163]
“+++” (≥50 = +++) | 85 (GLAPAEVVVATVA; listed as Homo sapiens) [compound 85]
“+++” (≥50 = +++) | 160 (LLPPPSPAA; listed as Homo sapiens) [compound 160]
“+++” (≥50 = +++) | 56 (GLQDLLFSL; listed as Homo sapiens) [compound 56]
